Source: patent US20240010735A1 (EISAI R AND D MANAGEMENT, published 2024)

What was measured:
[1] = target: T1, human EphA10 extracellular region-SEAP-His protein (human, UniProt Q5JZY3 34-565); assay: ELISA: SEAP-His proteins (1 nM) captured on anti-6-His antibody, antibody B 10 µg/mL with human IgG 100 µg/mL, HRP anti-human IgG, OD450 as % of human EphA4-SEAP-His
T1 construct: extracellular domain; also called Eph receptor extracellular region-SEAP-His protein; not shown: secretory alkaline phosphatase (SEAP); histidine tag
T1 sequence (looked up): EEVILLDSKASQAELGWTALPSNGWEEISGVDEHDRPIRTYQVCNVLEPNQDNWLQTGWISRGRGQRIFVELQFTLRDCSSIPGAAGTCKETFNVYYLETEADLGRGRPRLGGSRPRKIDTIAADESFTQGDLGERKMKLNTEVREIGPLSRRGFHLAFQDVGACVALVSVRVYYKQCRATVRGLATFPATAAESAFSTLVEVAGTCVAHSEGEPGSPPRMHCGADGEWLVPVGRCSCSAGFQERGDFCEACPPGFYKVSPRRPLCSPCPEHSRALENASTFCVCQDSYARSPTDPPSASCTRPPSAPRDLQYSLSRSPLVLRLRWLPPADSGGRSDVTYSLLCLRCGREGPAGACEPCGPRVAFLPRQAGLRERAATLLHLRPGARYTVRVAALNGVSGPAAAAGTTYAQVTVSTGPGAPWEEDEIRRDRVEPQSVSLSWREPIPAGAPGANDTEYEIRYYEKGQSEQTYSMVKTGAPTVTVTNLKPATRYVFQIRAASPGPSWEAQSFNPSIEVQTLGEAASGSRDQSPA

[2] = target: T2, human EphB1 extracellular region-SEAP-His protein (human, UniProt P54762 18-540); assay: as above
T2 construct: extracellular domain; also called Eph receptor extracellular region-SEAP-His protein; not shown: secretory alkaline phosphatase (SEAP); histidine tag
T2 sequence (looked up): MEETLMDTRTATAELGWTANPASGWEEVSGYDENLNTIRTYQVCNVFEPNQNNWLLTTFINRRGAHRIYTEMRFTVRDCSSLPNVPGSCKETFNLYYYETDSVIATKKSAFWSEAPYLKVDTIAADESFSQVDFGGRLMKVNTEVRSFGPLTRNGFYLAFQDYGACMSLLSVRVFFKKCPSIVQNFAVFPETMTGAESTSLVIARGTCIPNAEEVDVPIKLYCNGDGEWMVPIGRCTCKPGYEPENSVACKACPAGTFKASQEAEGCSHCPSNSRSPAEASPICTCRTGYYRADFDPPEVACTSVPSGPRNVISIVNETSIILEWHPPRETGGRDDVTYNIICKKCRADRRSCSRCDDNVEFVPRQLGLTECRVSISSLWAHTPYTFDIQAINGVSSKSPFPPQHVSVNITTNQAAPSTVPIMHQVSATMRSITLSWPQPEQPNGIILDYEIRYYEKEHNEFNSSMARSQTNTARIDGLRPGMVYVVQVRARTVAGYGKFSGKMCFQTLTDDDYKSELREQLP

[3] = target: T3, human EphA3 extracellular region-SEAP-His protein (human, UniProt P29320 21-541); assay: as above
T3 construct: extracellular domain; also called Eph receptor extracellular region-SEAP-His protein; not shown: secretory alkaline phosphatase (SEAP); histidine tag
T3 sequence (looked up): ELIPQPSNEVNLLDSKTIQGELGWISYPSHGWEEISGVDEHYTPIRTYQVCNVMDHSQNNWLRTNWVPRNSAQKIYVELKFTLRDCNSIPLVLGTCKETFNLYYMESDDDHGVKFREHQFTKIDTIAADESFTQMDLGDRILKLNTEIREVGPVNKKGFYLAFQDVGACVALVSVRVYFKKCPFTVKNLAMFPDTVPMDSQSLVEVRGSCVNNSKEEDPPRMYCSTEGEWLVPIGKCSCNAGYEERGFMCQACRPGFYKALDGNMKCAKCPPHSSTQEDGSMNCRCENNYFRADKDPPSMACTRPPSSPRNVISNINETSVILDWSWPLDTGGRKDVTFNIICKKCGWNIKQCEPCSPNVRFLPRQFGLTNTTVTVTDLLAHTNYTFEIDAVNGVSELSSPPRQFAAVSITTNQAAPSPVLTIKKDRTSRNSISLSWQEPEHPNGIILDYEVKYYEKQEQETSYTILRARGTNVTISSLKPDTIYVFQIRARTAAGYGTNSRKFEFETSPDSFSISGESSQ

[4] = target: T4, human EphA4 extracellular region-SEAP-His protein (human, UniProt P54764 20-547); assay: SPR (Biacore T200): human EphA4 extracellular region-SEAP-His captured on anti-His antibody, antibody B 1.6-100 nM as analyte, 1:1 fit
T4 construct: also called human EphA4 extracellular region-SEAP-His 10; not shown: secretory alkaline phosphatase (SEAP); histidine tag
Procedure: The binding affinity of antibody B obtained in Example 1 against human EphA4 was determined by surface plasmon resonance (SPR method) employing Biacore T200 (GE Healthcare). First, anti-His antibodies (GE Healthcare, 28-9950-56) were fixed to a sensor chip CMS. Fixation was carried out by amine coupling method employing N-hydroxysuccinimide (NHS) and N-ethyl-N′-(3-dimethylaminopropyl) carbodiimide hydrochloride salt (EDC), and ethanolamine was employed for blocking (the sensor chip and reagents for fixation are all from GE Healthcare). This was diluted with the fixation buffer (10 mM sodium acetate, pH 4.5) to 3.5 μg/mL, and fixed onto the sensor chip according to the protocol accompanying Biacore T200. Human EphA4 extracellular region-SEAP-His 10 was diluted with the running buffer HBS-EP (GE Healthcare, BR-1001-88), and the solution was sent and captured onto the flow cell for 120 seconds (about 10 RU of captured amount). […] Fitting analysis by 1:1 binding model employing the software accompanying the system, BIA evaluation software, was carried out against the binding reaction curve obtained, and the affinity (KD=kd/ka) against human EphA4 was calculated.

T4 sequence (P54764 20-547): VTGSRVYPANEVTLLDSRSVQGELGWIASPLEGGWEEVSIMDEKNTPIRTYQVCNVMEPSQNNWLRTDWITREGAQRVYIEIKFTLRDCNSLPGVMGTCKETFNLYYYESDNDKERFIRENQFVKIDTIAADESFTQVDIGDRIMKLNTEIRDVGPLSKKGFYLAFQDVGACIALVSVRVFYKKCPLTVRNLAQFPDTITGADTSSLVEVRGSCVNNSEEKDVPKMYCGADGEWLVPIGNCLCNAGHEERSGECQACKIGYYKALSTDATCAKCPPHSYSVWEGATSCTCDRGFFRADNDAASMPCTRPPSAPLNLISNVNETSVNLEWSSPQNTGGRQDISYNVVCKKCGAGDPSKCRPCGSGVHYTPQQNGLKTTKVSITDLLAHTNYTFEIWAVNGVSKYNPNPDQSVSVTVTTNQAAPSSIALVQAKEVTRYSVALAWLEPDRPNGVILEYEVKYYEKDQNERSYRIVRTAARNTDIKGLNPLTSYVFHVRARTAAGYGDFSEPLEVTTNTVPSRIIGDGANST

B1: humanized anti-EphA4 monoclonal antibody (antibody B) (antibody, human IgG2, V domains shown)
VH: QVQLVESGGGVVQPGRSLRLSCAVSGFSLTRFGVHWVRQAPGKGLEWVAVIWRGGSTDYNAAFMSRLTISKDNSKNTVYLQMNSLRAEDTAVYYCAKESLFGVYYDYGYYSMDYWGQGTTVTVSS
VL: DIQMTQSPSSLSASVGDRVTITCRASQEISGYLSWLQQKPGKAPKRLIYAASTLDSGVPSRFSGSRSGTEYTLTISSLQPEDFATYYCLQYASYPLTFGGGTKVEIKR
notes: expressed in Expi293F cells; also called humanized antibody of antibody A; HK2-42 / L1-8
binding result [1]: no binding (tested: 10 µg/mL) | binding result [2]: no binding (tested: 10 µg/mL) | binding result [3]: no binding (tested: 10 µg/mL) | koff [4]: 0.000494 s⁻¹ | kon [4]: 370000 M⁻¹ s⁻¹
